Laboratory results taken from the domain aggregation screens of Martell et al. (2025).

Assay: soluble fraction after stress (log2 fold change); higher = more stays soluble; pooled small domains, quantitative proteomics
Settings: stress: 75 degC
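Note: 20 min heating vs room temperature control held 20 min.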

Sequence	soluble fraction (log2)
HMDRWSLLTLTTLAGGTLRFTELKRAIGDISQRMLAQTLRTLEREGYVSRKVYATIPPKVEYRLTALGQSL	-3.21
HMDRYAVRAEELAAALAQYHRHVGVYPENLEDLIAPTGPRGYRGPYLSELPTNPSTSKPDWGYDPATGRVS	0.432
HMDSAFVSDIRDAFDEAGVDSYRFFGTHSFKRGGVQLYRLLGVSDQEIKERGHWQTFSAYFAYVQA	0.164
HMDSESGAIIRRAVAQLAPKFRSTIVLRLIEGYSTEETAQILQLPVGTVLSRLARAKVQLMNLLTPYKEL	-0.0893
HMDSIDIDAETKSLGPNAPQIIKGIKEWGQGLVAKGVWSDQDFEEFKVFAATANGINALNKVRKFY	-0.037
HMDSIDVQQKKLLTDIELGNIEGIKLFLKRHNNTINFLTIKGFHPLVYAVRNNNMEIVNLFLTT	0.149
HMDSIGTQIRKLREEAEMPLRKLSALLDIDQSTLSKIERDERRANTQMIEQIAKIFKVNKEQLLVA	-0.77
HMDSKPNDLLFVYVSQLIRSLTLNSSKKDSELADELEVSISQIRIWLKKLINEQLIVKESKPVKYRWKG	-2.84
HMDSLARKTVNGAEFYIYPVESAEGFYSLRRKFGVSQEEVIKYNPSAQNGLKSGQVLLIPVT	-0.298
HMDSLQDFAYEEIKKRIQNGEYAPGTKLNTQEISDSLGISRSPVLAAINRLIALGLVEATPRKGTTVA	-0.116
HMDSLSGQQGRVLEEINGFLQTGKVLLNGMEWSAVSKQPEDILPVDTEVVVVRVEGAHLVVKKA	-0.286
HMDSPRITMDQLRIGLYVYLDLTWFQHPFAFSHFKINSEDQIKTILGLGLKSVRYDPALSDPV	-2.91
HMDSQSVFADLVKSLSQKIASIPVWFEYTKNEQYDLISSYVSAKLKDLGVEFSQEEKEKFITMFMNS	-0.609
HMDSRQIIAALQARYADETGITALKIKFNNVLGYFVDVPARYGDPLMKPPLSETFIHRQTLASNVRF	-0.0679
HMDSSITLMRMYIPKGHNWENKLISDVSMPTNSLALMIKRNGTTIIPKGDTMILAKDTLILSVPSYEPS	-2.6
HMDSSNLSLIAGVGPTIEKKLRAAGITSWEQIAAWTEADVAKYDEELNLRGRITRDEWIEQAKELLAGKPP	0.0267
HMDSTLDLVATQGGRLDQVLAEMIPEHSRNRLQHWIKAGRVLVDGQPVLEPKHKIYGGEDLAVRVD	0.215
HMDSVSAVRTTHLNSYVLLLEKDGMAAATISRYIASMKGFFEYLFREHMIEEDPAFTLKPPKV	0.009
HMDSVVPNVVGMTAEKANKALTDAGLNVKITGATIGSGAVVHSQSIPAGTVTSKGTVVSIEMRFAAAEGD	-0.242
HMDSYSILGIEKESSMEDIEKAYIDKISKIKKEVKNEKNAAAFEAVLTKAYNDILSQKENISEEQELAE	0.0885
HMDTAGSVAIVSKSVIENGFGEIKYKGTYFKAQSDVYIPKDQMVKVIGKGDEQGSFLIVEKLN	0.0706
HMDTIASESVRNRIEELISNENPKKPLSDQALVKMLQEFDIKIARRTVAKYREMLKIPPSSKRKQV	-0.265
HMDTIGSKVLAFLAGNLLDPTPFNYRFGYLYLNRTSKVIVEETDTYIDSGMRMTQEAVAEIMQKFAQ	-4.12
HMDTITMAGERYAVSDLEKVSGDIFEKAFGFEIDPKTADAKDVLPTMPKSDVDLFKKLSGIKP	0.401
HMDTIYPFNPNFIDDYKGYVLGLNTNEIDRLLKYRSKGNWINSAEDFKKVTGIDDALLNKLSKSFKFPDWL	-1.81
HMDTLRPLGRYQNVHLTKQELTALQSEFSDWSERIERLSSYMASTGRKYQNHAATIRLWAEKDK	0.0841

Sequence	soluble fraction (log2)
HMDTMINLIGLNLKKAKKELSNLGVNVKKVRYKKSSVYDEGVVIDQSIEAGRNIKNGDFITITVSSGKA	-0.473
HMDTNEPFAQLQLRFTDPIQYDYEVIRPVVLFSQSVTDRSDETEMPRTTVREKARQFVTEGMLGLVDK	0.166
HMDTNTIIGLRIKALRTEKKYTLKYLSENSGLSIGFLSQLERGMTSVAIDSLDKISKVLDVELSSFFN	-3.05
HMDTPMQEAVLQRLRDKVAQAAAGSKLPTVRQLIADYGVGQHVIQAALEKLRTEGLITSHVGKGTFVG	0.325
HMDTPMYMAIIEEVRFQIANEILKEGEQLPSIRNLAKTLKVSVITVKRAYKELEEAGYITTIPAKGSKVS	-1.16
HMDTQKYDLNDDGRFDVQDVTYLQIKIAGDGELTDNQKKIADYNNDGKIDVQDVTSAQMLIS	0.023
HMDTSADEVKQLIASFVEQEDKRKPLSDQKIVELLAEKEQKISRRTVAKYRDALNIPSSSKRKRF	0.469
HMDTSISHLVGRTGEAVTDLRPAGTVMIDGELYDARATEGFIEKGEIVKAIKYQYGQLNVRRVSK	0.00609
HMDTVSYSTLLRDIDAKEIKQLDLVPGRREVRVQYNDGRRVTVPVFANDNQILRAAESSGTPLTVV	0.0297
HMDVADITGTRKAAILLLTMDEELSKELLKEFERHEIEAIGKEIANIKYIPENIVKQVHSEFLKNINKS	-0.282
HMDVFTAKTASHIQELREKLGQQAVFGRSDVQNALGLKATRSSALLREMAEHGIIEPVTGYGKGRYHFRS	0.204
HMDVIDDAQAMEIALEDAGLSMDDLDRYELELHTKRSELVYSIELKSGTEEYEYDLRAADGTILKRDTDF	0.0166
HMDVLDVADNVNDDMSFADAFAAARSEVGAGGIFYWHGKAYGTYYENEWAGMSEEDKADYWDAVARTTS	-0.144
HMDVLSPEEWIEFRTAYNNNRYISQYGSKGATIEDDYATRLAMIGGKESYYFLNDPRWTEPGYGNLK	-0.5
HMDVMNEIQQKAFDIYIQSASLKNDFTPISERALAKKLHDMGLKSSMSAIGRWKKKFGWVQSLQNKVTLA	-0.173
HMDVNKDLLGETLEKAKSYKADDWRKASYEALQKAIVEAEAVYKDEEADQVAVDRKVAALNKAINNLEAKG	0.475
HMDVNPETLSYYIERADISLDELRTSVKGIDLFLTGEKQPTFNQISNIAKKLNIPTGLLLINKPIEI	-0.645
HMDVNSRIRQFLKKMKITVQTFESSIGKTNGYIAHTKSPTAGVLAEIAKVYPDLNLDWLITGEGEMLKN	-1.42
HMDVPTSSITEVKKSPMDVFAQARKAETGVYIFNREKIAGVMLTKEQYEALVEELNTLRDTL	-0.68
HMDVQEILGALSPDEKAAIGQLTSGEKHIDQIIAATRLPAARITSALTLLQIKGYVRALPGKRFSLTEKQ	-1.87
HMDVQPTTTKTMFYTVQQGETLFSISRKFGISVEEITKKNPLASSGLTVGMELLLPEKKEINSTIQS	0.0149
HMDVSEITTIKWIIKETKLGINEKILIYVNSKNFTVETLMEGFEIMSKYLVENVSSDKIVYIKN	0.0119
HMDVTDRLARRLQGLRSAQGLSLDALAARSGVSRSNISLIERGQSSPTATVLDKLSAALGVTLAALFEEP	-1.04
HMDWVAYGAELRRRRLLAGWTVAELSRRINLSGMTIHQIEKGRGRLRPSELTLAKLAAALGMPTP	-3.58
HMDYEVPEELEEKFSENPQFKEAFDNLTPGRQHQYIYHISQAKRSQTRINRIEKYYEHILNGKGMQD	0.111
HMDYGTATASAILYLEKIDPENPYLLLAKDTITTNPKMSVNFALKGIIESKKGEKEENLNKALEIMSSL	-0.144

Sequence	soluble fraction (log2)
HMDYKSNLQEMVQTTKKSVTYELVKEEGPAHDRTFTMNVIVDGIVLGTGTAKSKKEAEQEAAHQALEKKA	-0.253
HMDYTGIPQSLLDLMKKDNIMPMQIQRAVAERNYYPVDTPISNYDPMFIEAKLVGAWDQVLNVISHLDLP	-1.25
HMDYTPIEVKDLPQAIQDALTKNFSEYTVKSAAYQEDEDGVKIYQVTVVDEEGTEANIFFTEKGE	0.206
HMEADERRNEILDAAETLITEKGYSKTTIIDILNQVGIAKGTFYYYFKSKEEVMDAIIERFI	-2.41
HMEAEGLDFAPMPGEIGKKLWQEVSKEAWAGWLKHQTMLVNENRLSFVDPAARKYLTEQTEAYFFG	0.131
HMEAEMLYQVKVKITNLVIRSGAGAIYPIVKRYASGVLPIYEEKNGYGKIAVGQWISLSPEFVERVD	-3.13
HMEAEPRLLDLPPGTRAGRLDKVLAQLLPEHSRSRLQGWIERGGVLVNGKEASVRQVVGPGDQLTVWEEAA	-0.0507
HMEAEQLEAIRSALQQLSDMNRTVFNLHVVDGYKHEEIAAMLNITTGTSKAHLHRAKKRLRELID	-1.04
HMEAEVIKTASDMADRNGLHNVSLKAIAENLGIRTPSLYNHIGSLDELLREIAHSGMRTMNE	-0.0854
HMEAFAEAVASMLRKLQPEFAIDLVGPRELLVNGRRLDLENLYRMVNHEPVRGQEIVEHYLDQLFAG	-1.17
HMEAGLRMPEQLTAFSALALLQKVRDSGPLTDAQKEQLDADVLRIEASHFGKADREALELEEILKQWLSRV	0.149
HMEAKSSTKALLDVVLGRNGVSTANVAKSLNISVQNASTRLKKLSSEGVIMRSEVSSPTGGIEFIYS	0.109
HMEAKTSNPDYHARLGLTEGEGNDSALGVSVKAAEGGFGLLFGNKVGSDQLVRFANEDQVWLVNRALS	0.165
HMEALNIEQKKVEIINVLLEKGKGKGRLSYKEISDQIDTVELDKDQMDELYETLMTNGIEIV	0.00136
HMEALPSNLRRLRLEAQLTLDRLGALSGVSRAMISKIERGASVPTATMLGKLAAALQVSLSQLL	-1.18
HMEAMITEVKRINYGLISDISKSLDPFKSEGGHIIVDKRTNTFILTDLRANIEKMLWSIEIMD	-0.196
HMEAPNELLVPEGARPARADRVLAAAFPEHSRTALQRAFDAGLVRRANLVLSRDTAVAGGDRIAFSLPAV	0.0788
HMEARYQLREVSLDGLRSGMILNADVLSTDGVLMARKGLEVSGLLRSRLEAFAKMERIEPTFKVLVPIAPP	-2.19
HMEASSTAIQAMIRRLIDDENPRKPLSDAKLADLLKSSGIPVARRTVAKYREAMNISASHERVRI	-0.793
HMEATEFYLEDLTGQMYNDVVNDEKYAGKIVFEKEEVQSDGEEAIGQILNQRPAGNMNVRIGTTVTLVVNA	0.242
HMEATVGSRVRLARIGLTLTQKQLAQAVGVSANHLAMVERGSKHASEDLLQRIATATHTTYEWLMGTSEHQ	-2.43
HMEAVIENAAIIKQNSGGYAVRATVNGVDLGMKPVERATALLYFSLTDKLEKDRLLSHTLQKTYGDLSA	-0.212
HMEAYLPVTVVSDGKILTGNLEKAGKNEKWLENVLSELKTDVKNTLLLTVDPKDGLIFYPKG	0.408
HMEAYMVPNVKNKTLNEAQQALSNQKLKGLVIDSSYVKGVPDGMVLDQNPAGGARVKEGRTIYLTVTTS	0.237
HMEDADERRALEVLNQLLDLPEREQEAALAALSLPPALARRVRSLLSVQTRAADLFDTAPSP	0.0142
